This is an account of results in US20200123260A1 (Pfizer, published 2020).

In experiment [1] the target is T1, recombinant human TrkA-Fc (rhTrkA-ECD, R&D system, 175-TK) (human, UniProt P04629 33-423).
T1 construct: extracellular domain; Bought protein; not shown: Fc part, not described
In words: direct binding ELISA: plate coated with rhTrkA-ECD (Fc chimera) at 5 ug/ml, biotinylated antibody, streptavidin-HRP.

The target in experiment [2] is T2, TrkB, Cat (Felis domesticus) on 293 cells (cat (Felis domesticus)).
T2 construct: Whole entry with signal peptide; also called cat TrkB
In words: cell-based ELISA on transfected 293 cells. Background: In an ELISA, binding on a coated surface is turned into a signal by an enzyme label.

Experiment [3] concerns the target T3, mouse TrkB (nm_001025074) on HEK293 cells (mouse, UniProt P15209 32-821).
T3 construct: whole, on cells; also called rmuTrkB-CRE
The experiment is described as follows: cell-based ELISA on transfected 293 cells.

Experiment [4] concerns the target T4, rhTrkB-ECD (R&D #397-TR/CF) (human, UniProt Q16620 32-430).
T4 construct: extracellular domain; Bought protein; also called human TrkB-extracellular domain protein; human TrkB ectodomain protein
In words: SPR (Biacore), TrkB ectodomain immobilised on CM5, antibody injected. (SPR reads the build-up and loss of mass on a sensor chip optically.)

Experiment [5] concerns the target T5, Mouse TrkB ectodomain protein (R&D #1494-TB/CF) (mouse, UniProt P15209 32-429).
T5 construct: extracellular domain; Bought protein; also called mouse TrkB-extracellular domain protein
The experiment is described as above.

Experiment [6] addresses T6, recombinant human TrkC-Fc (rhTrkC-ECD, R&D system, 373-TC/TF) (human, UniProt Q16288 32-429).
T6 construct: extracellular domain; Bought protein; not shown: Fc part, not described
The experiment is described as follows: direct binding ELISA: plate coated with rhTrkC-ECD (Fc chimera) at 5 ug/ml, biotinylated antibody, streptavidin-HRP.

For experiment [7], the target named is Human TrkA, NP_002520, cell-surface expressed on transfected 293 cells (human, UniProt P04629 33-796). The experiment is described as follows: cell-based ELISA on transfected 293 cells, HRP-conjugated secondary antibody, TMB, OD450.
A further experiment addresses T7, Chimeric TrkA (d4TrkB) (human).
T7 construct: TrkA residues 187-281 replaced by TrkB residues 190-282
The experiment is described as above.

Another experiment concerns the target T8, Chimeric TrkB (d5TrkA) (human, UniProt Q16620 32-822).
T8 construct: TrkB residues 284-377 replaced by TrkA residues 280-377
The experiment is described as above.

Experiment [8] concerns the target T4, rhTrkB-ECD (R&D #397-TR/CF). In words: competition ELISA on coated rhTrkB-ECD; competitor biotinylated chimeric TOA-1 at 25 ng/ml.
For experiment [9] the target is unchanged. The experiment is described as follows: competition ELISA: plate coated with rhTrkB-ECD; biotinylated chimeric TOA-1 at 25 ng/ml mixed with the unlabeled antibody; streptavidin-HRP.
For experiment [10], the target named is hTrkC in the SHC1 recruitment assay (U2OS, Discoverx Pathhunter) (human, UniProt Q16288 32-839). In words: cell-based or functional assay.
For experiment [11], the target named is hTrkB-a isoform fused to a small peptide epitope, in U2OS cells (Discoverx Pathhunter) (human, UniProt Q16620 32-822). In words: cell-based or functional assay.
In experiment [12] the target is human TrkB (open reading frame from nm_006180) on HEK293 cells (human, UniProt Q16620 32-822). In words: cell-based or functional assay.

T5 sequence (P15209 32-429): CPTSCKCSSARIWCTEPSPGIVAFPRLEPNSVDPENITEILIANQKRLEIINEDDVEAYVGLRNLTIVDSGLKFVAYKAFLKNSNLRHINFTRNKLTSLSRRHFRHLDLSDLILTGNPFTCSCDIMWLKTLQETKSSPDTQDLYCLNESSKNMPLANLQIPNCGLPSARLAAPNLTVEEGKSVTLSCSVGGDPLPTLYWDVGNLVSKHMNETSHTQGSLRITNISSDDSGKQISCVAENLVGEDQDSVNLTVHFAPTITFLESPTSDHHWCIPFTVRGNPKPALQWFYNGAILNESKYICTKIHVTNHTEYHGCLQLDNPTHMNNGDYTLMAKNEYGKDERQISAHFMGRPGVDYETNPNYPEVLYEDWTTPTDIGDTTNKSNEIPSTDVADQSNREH
T4 sequence (Q16620 32-430): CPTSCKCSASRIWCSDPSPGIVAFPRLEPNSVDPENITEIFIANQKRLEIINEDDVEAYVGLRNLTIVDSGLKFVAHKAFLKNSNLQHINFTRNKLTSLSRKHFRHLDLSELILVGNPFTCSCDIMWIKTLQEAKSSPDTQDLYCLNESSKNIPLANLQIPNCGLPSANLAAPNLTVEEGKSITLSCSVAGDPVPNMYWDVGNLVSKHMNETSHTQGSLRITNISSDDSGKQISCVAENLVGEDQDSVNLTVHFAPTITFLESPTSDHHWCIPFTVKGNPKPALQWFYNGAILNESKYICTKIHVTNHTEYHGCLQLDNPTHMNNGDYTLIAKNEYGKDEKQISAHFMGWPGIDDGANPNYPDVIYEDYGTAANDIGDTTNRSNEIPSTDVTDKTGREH
T8 sequence (Q16620 other isoform, or with tags, fused parts or gaps mutant limits assumed): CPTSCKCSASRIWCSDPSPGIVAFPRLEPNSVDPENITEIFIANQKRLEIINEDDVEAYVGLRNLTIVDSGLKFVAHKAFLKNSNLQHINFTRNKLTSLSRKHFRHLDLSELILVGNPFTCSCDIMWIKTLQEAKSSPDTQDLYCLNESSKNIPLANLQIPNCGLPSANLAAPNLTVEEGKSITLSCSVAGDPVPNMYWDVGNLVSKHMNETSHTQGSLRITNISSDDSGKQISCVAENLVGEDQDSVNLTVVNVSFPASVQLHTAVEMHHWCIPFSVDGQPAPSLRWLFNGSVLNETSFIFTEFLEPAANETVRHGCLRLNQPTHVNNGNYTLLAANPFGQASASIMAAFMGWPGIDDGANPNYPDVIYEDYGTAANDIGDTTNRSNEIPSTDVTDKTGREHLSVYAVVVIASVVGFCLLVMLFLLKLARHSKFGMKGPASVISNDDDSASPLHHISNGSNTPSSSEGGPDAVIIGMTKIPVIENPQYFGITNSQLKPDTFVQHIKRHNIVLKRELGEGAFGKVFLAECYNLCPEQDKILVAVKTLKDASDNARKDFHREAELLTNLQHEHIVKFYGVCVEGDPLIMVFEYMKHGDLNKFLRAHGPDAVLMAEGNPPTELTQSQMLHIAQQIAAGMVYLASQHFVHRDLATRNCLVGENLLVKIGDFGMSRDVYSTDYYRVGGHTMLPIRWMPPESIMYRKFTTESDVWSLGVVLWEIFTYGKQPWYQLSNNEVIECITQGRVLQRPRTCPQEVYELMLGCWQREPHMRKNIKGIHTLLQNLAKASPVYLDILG
T7 sequence (chain, as listed by the source mutant limits assumed): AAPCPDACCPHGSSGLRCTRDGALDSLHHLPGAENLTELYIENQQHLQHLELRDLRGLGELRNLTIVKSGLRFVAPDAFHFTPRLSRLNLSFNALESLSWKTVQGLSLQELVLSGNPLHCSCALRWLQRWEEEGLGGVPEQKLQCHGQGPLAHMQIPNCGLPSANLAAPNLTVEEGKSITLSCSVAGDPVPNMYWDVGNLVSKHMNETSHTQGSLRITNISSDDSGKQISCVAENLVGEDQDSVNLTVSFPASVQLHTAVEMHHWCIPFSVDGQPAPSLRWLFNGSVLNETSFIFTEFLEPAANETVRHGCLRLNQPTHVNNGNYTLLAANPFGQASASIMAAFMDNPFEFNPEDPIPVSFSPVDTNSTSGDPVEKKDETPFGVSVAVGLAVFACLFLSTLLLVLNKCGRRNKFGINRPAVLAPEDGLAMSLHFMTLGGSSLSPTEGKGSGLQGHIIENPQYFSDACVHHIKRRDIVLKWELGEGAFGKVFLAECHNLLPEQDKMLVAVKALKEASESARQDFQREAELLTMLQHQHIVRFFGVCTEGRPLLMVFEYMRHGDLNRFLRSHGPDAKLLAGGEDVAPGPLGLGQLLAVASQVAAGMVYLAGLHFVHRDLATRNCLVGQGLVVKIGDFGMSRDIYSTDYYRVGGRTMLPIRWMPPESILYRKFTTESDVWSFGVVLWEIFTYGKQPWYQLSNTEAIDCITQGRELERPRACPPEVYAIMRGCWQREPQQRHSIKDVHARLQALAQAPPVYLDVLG
hTrkC in the SHC1 recruitment assay (U2OS, Discoverx Pathhunter), sequence (Q16288 32-839): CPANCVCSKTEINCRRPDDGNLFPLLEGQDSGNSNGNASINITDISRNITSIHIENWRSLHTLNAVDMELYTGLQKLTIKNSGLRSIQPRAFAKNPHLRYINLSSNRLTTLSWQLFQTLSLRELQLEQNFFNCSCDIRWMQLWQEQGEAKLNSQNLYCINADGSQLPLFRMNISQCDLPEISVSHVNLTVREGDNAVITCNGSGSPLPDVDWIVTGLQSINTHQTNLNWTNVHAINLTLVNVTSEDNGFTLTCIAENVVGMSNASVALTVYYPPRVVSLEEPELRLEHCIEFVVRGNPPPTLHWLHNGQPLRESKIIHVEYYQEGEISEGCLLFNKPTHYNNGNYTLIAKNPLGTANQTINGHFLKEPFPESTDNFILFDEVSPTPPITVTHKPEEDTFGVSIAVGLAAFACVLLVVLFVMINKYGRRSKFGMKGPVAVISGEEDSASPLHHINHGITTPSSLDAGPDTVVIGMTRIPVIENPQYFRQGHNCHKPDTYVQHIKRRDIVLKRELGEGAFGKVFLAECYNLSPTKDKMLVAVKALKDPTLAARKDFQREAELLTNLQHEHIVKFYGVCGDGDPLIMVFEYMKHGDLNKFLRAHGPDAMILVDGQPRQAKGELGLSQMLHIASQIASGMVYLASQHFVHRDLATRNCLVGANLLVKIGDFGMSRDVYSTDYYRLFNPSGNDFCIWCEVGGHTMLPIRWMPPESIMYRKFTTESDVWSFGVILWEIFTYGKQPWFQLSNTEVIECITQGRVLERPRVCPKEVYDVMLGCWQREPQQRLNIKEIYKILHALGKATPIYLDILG
T2 sequence (chain, as listed by the source limits assumed): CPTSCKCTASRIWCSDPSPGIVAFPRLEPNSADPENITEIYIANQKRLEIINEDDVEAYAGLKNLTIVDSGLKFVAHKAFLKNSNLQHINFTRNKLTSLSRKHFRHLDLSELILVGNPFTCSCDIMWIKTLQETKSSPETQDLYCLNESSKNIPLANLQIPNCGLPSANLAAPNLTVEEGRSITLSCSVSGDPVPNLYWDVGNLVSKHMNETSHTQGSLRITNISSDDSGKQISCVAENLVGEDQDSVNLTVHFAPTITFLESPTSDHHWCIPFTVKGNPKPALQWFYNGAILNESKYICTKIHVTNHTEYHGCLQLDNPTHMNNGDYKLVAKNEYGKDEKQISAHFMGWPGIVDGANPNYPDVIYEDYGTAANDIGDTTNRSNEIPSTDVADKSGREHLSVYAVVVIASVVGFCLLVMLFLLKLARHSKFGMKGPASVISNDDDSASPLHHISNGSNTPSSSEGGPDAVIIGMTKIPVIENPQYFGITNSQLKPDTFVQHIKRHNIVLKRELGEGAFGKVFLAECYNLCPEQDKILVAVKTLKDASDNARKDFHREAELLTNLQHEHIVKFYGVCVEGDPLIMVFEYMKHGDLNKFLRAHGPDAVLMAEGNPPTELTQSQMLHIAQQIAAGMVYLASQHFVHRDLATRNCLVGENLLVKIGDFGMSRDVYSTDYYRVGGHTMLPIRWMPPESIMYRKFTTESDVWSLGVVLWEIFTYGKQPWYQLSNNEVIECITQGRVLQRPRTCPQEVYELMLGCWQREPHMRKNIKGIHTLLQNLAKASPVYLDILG
T3 sequence (P15209 32-821): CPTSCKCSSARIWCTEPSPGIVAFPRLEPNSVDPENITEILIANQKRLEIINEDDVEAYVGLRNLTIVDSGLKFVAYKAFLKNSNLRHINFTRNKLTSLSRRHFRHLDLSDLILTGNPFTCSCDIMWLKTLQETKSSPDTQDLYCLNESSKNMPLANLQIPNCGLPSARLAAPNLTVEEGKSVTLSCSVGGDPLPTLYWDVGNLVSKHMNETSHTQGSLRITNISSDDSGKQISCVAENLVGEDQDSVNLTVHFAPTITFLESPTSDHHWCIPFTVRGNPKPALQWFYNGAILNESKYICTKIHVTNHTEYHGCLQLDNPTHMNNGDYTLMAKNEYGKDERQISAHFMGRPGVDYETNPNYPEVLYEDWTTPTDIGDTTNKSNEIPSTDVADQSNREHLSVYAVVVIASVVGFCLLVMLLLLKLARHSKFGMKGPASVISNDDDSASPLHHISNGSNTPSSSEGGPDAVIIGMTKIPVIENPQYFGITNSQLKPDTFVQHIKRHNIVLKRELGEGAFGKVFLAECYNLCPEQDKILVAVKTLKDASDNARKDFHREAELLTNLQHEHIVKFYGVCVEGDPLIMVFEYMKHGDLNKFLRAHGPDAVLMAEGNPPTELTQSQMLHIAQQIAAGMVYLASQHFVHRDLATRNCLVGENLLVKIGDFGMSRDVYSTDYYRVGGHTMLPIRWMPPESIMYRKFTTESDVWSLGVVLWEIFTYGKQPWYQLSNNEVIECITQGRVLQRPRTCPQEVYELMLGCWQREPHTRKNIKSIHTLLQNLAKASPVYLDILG
hTrkB-a isoform fused to a small peptide epitope, in U2OS cells (Discoverx Pathhunter), sequence (Q16620 32-430): as the sequence (Q16620 32-430) above

B1: mouse TOA-1 antibody (antibody, mouse IgG1, V domains shown)
VH: EVQLQQSGPELVKPGASMKISCKTSGYSFTAYFMNWVKQSHGKSLEWIGRINPNNGDTFYTQKFKGKATLTVDKSSNTAHMELLSLTSEDSAIYYCGRRDYFGAMDYWGQGTSVTVSS
VL: AIVLIQSPATLSVTPGDSVSLSCRASQTISNNLHWYQQKSHESPRLLIKSASLAISGIPSRFSGSGSGTDFTLSISSVETEDFGMYFCQQSNSWPNTFGGGTKLEIK
notes: Hybridoma antibody, cloned with mouse IgG1 and mouse Kappa primers; also called muTOA-1; mTOA-1
Consider B1, for which the binding result in [1] is given as “no binding (tested: about 6.7 nM)”; in [6] it was “no binding (tested: about 6.7 nM)”; in experiment [7], “no binding (tested: 10.00 ug/ml)”; with Chimeric TrkA (d4TrkB) it was “no binding (tested: 10.00 ug/ml)”; with Chimeric TrkB (d5TrkA), “no binding (tested: 1.0000 ug/ml)”. Besides, the EC50 – broadly, the concentration that produces a half-maximal response – in [2] worked out at 0.23 nM; in [3], 0.4 nM. In addition, the Kd – broadly, a measure of binding affinity in units of concentration – in [4] came to 14.7 nM; in experiment [5] it was 16.3 nM.

B2: chimeric TOA-1 antibody (antibody, V domains shown)
VH: EVQLQQSGPELVKPGASMKISCKTSGYSFTAYFMNWVKQSHGKSLEWIGRINPNNGDTFYTQKFKGKATLTVDKSSNTAHMELLSLTSEDSAIYYCGRRDYFGAMDYWGQGTSVTVSS
VL: AIVLIQSPATLSVTPGDSVSLSCRASQTISNNLHWYQQKSHESPRLLIKSASLAISGIPSRFSGSGSGTDFTLSISSVETEDFGMYFCQQSNSWPNTFGGGTKLEIK
notes: also called chiTOA-1; VH mouse / VL mouse
Consider B2, for which, in experiment [8], the IC50 (commonly the concentration that gives 50% inhibition) is 3.6 nM. For the same molecule, the Kd in experiment [4] is 12.1 nM; in experiment [5], 17 nM.

B3: TOA-1 variant VH human v1.1 / VL human v1.0 (antibody, V domains shown)
VH: EVQLVESGGGLVQPGGSLRLSCATSGYSFTAYFMNWVRQAPGKGLEWVARINPNNGDTFYTQKFKGRFTISVDNAKNSAYLQMNSLRAEDTAVYYCARRDYFGAMDYWGQGTLVTVSS
VL: DIQMTQSPSSLSASVGDRVTITCRASQTISNNLHWYQQKPGKAPKLLIYSASLAISGVPSRFSGSGSGTDFTLTISSLQPEDFATYYCQQSNSWPNTFGGGTKVEIK
notes: Human IgG; constant regions not restated; also called hu v1.1 / hu v1.0
With B3, the IC50 in [8] turned out to be 13.6 nM.

B4: TOA-1 variant VH mouse / VL human v1.0 (antibody, V domains shown)
VH: EVQLQQSGPELVKPGASMKISCKTSGYSFTAYFMNWVKQSHGKSLEWIGRINPNNGDTFYTQKFKGKATLTVDKSSNTAHMELLSLTSEDSAIYYCGRRDYFGAMDYWGQGTSVTVSS
VL: DIQMTQSPSSLSASVGDRVTITCRASQTISNNLHWYQQKPGKAPKLLIYSASLAISGVPSRFSGSGSGTDFTLTISSLQPEDFATYYCQQSNSWPNTFGGGTKVEIK
notes: Human IgG from COS-1 conditioned medium; constant regions not restated; also called mu / hu v1.0
Consider B4, for which, in [8], the IC50 is 16.3 nM.

B5: huTOA-1 v1.0/2.0 (antibody, V domains shown)
VH: EVQLVESGGGLVQPGGSLRLSCAASGYSFTAYFMNWVRQAPGKGLEWVARINPNNGDTFYTQKFKGRFTISRDNAKNSLYLQMNSLRAEDTAVYYCARRDYFGAMDYWGQGTLVTVSS
VL: EIVMTQSPATLSVSPGERATLSCRASQTISNNLHWYQQKPGQAPRLLIYSASLAISGIPARFSGSGSGTEFTLTISSLQSEDFAVYYCQQSNSWPNTFGGGTKVEIK
notes: Human IgG; constant regions not restated; also called VH human v1.0 / VL human v2.0
Consider B5, for which the IC50 in [8] came out at 5.9 nM. The Kd in experiment [4] worked out at 16.5 nM; in experiment [5], 20.9 nM.

B6: TOA-1 variant VH human v2.0 / VL human v1.0 (antibody, V domains shown)
VH: EVQLVQSGAEVKKPGATVKISCKVSGYSFTAYFMNWVQQAPGKGLEWMGRINPNNGDTFYTQKFKGRVTITADTSTDTAYMELSSLRSEDTAVYYCATRDYFGAMDYWGQGTLVTVSS
VL: DIQMTQSPSSLSASVGDRVTITCRASQTISNNLHWYQQKPGKAPKLLIYSASLAISGVPSRFSGSGSGTDFTLTISSLQPEDFATYYCQQSNSWPNTFGGGTKVEIK
notes: Human IgG; constant regions not restated; also called hu v2.0 / hu v1.0
B6 registered an IC50 in [8] of approximately 126 nM.

B7: TOA-1 variant VH human v1.1 / VL human v1.1 (antibody, V domains shown)
VH: EVQLVESGGGLVQPGGSLRLSCATSGYSFTAYFMNWVRQAPGKGLEWVARINPNNGDTFYTQKFKGRFTISVDNAKNSAYLQMNSLRAEDTAVYYCARRDYFGAMDYWGQGTLVTVSS
VL: DIQMTQSPSSLSASVGDRVTITCRASQTISNNLHWYQQKPGESPKLLIKSASLAISGVPSRFSGSGSGTDFTLTISSLQPEDFATYYCQQSNSWPNTFGGGTKVEIK
notes: Human IgG; constant regions not restated; also called hu v1.1 / hu v1.1
Take B7: in experiment [8], the IC50 was determined as 10.1 nM.

B8: TOA-1 variant VH human v2.0 / VL human v1.1 (antibody, V domains shown)
VH: EVQLVQSGAEVKKPGATVKISCKVSGYSFTAYFMNWVQQAPGKGLEWMGRINPNNGDTFYTQKFKGRVTITADTSTDTAYMELSSLRSEDTAVYYCATRDYFGAMDYWGQGTLVTVSS
VL: DIQMTQSPSSLSASVGDRVTITCRASQTISNNLHWYQQKPGESPKLLIKSASLAISGVPSRFSGSGSGTDFTLTISSLQPEDFATYYCQQSNSWPNTFGGGTKVEIK
notes: Human IgG; constant regions not restated; also called hu v2.0 / hu v1.1
In experiment [8], B8 returned an IC50 of approximately 87.6 nM.

B9: huTOA-1 VH v1.0 / VL v1.3 (antibody, V domains shown)
VH: EVQLVESGGGLVQPGGSLRLSCAASGYSFTAYFMNWVRQAPGKGLEWVARINPNNGDTFYTQKFKGRFTISRDNAKNSLYLQMNSLRAEDTAVYYCARRDYFGAMDYWGQGTLVTVSS
VL: DIQMTQSPSSLSASVGDRVTITCRASQTISNNLHWYQQKPGKSPKLLIYSASLAISGVPSRFSGSGSGTDFTLTISSLQPEDFATYYCQQSNSWPNTFGGGTKVEIK
notes: Human IgG; constant regions not restated; also called hu v1.0 / hu v1.3
B9: the “IC50 (read off the curve)” value in experiment [9] was approximately 9 nM.

B10: TOA-1 variant VH mouse / VL human v1.1 (antibody, V domains shown)
VH: EVQLQQSGPELVKPGASMKISCKTSGYSFTAYFMNWVKQSHGKSLEWIGRINPNNGDTFYTQKFKGKATLTVDKSSNTAHMELLSLTSEDSAIYYCGRRDYFGAMDYWGQGTSVTVSS
VL: DIQMTQSPSSLSASVGDRVTITCRASQTISNNLHWYQQKPGESPKLLIKSASLAISGVPSRFSGSGSGTDFTLTISSLQPEDFATYYCQQSNSWPNTFGGGTKVEIK
notes: Human IgG from COS-1 conditioned medium; constant regions not restated; also called mu / hu v1.1
In [8], B10 yielded an IC50 of 13.6 nM.

B11: TOA-1 variant VH human v1.1 / VL human v2.0 (antibody, V domains shown)
VH: EVQLVESGGGLVQPGGSLRLSCATSGYSFTAYFMNWVRQAPGKGLEWVARINPNNGDTFYTQKFKGRFTISVDNAKNSAYLQMNSLRAEDTAVYYCARRDYFGAMDYWGQGTLVTVSS
VL: EIVMTQSPATLSVSPGERATLSCRASQTISNNLHWYQQKPGQAPRLLIYSASLAISGIPARFSGSGSGTEFTLTISSLQSEDFAVYYCQQSNSWPNTFGGGTKVEIK
notes: Human IgG; constant regions not restated; also called hu v1.1 / hu v2.0
In experiment [8], B11 yielded an IC50 of 10.7 nM.

B12: huTOA-1 VH v1.0 / VL v1.2 (antibody, V domains shown)
VH: EVQLVESGGGLVQPGGSLRLSCAASGYSFTAYFMNWVRQAPGKGLEWVARINPNNGDTFYTQKFKGRFTISRDNAKNSLYLQMNSLRAEDTAVYYCARRDYFGAMDYWGQGTLVTVSS
VL: DIQMTQSPSSLSASVGDRVTITCRASQTISNNLHWYQQKPGEAPKLLIYSASLAISGVPSRFSGSGSGTDFTLTISSLQPEDFATYYCQQSNSWPNTFGGGTKVEIK
notes: Human IgG; constant regions not restated; also called hu v1.0 / hu v1.2
For the molecule B12, the “IC50 (read off the curve)” value in [9] was approximately 9 nM.

B13: BDNF (R&D systems, cat #248-BD) (ligand, human, UniProt P23560 129-247, looked up)
chain: HSDPARRGELSVCDSISEWVTAADKKTAVDMSGGTVTVLEKVPVSKGQLKQYFYETKCNPMGYTKEGCRGIDKRHWNSQCRTTQSYVRALTMDSKKRIGWRFIRIDTSCVCTLTIKRGR
B13: the results for the “EC50, SHC1 recruitment assay” value in [10] and in experiment [11] were 5.45 nM and 1.02 nM, respectively. In addition, the “Cre-luciferase reporter, EC50 (FIG. 38)” value in [12] came out at 5.2 nM.

B14: TOA-1 variant VH human v2.0 / VL human v2.0 (antibody, V domains shown)
VH: EVQLVQSGAEVKKPGATVKISCKVSGYSFTAYFMNWVQQAPGKGLEWMGRINPNNGDTFYTQKFKGRVTITADTSTDTAYMELSSLRSEDTAVYYCATRDYFGAMDYWGQGTLVTVSS
VL: EIVMTQSPATLSVSPGERATLSCRASQTISNNLHWYQQKPGQAPRLLIYSASLAISGIPARFSGSGSGTEFTLTISSLQSEDFAVYYCQQSNSWPNTFGGGTKVEIK
notes: Human IgG; constant regions not restated; also called hu v2.0 / hu v2.0
B14: in experiment [8], the IC50 was approximately 37.8 nM.
